The series can be described thus: soluble on expression in E. coli; label from the status in PepcDB or PDB records.
Regarding “TPDRHQFPGLANKTYFNFGGQGILPTVALEAITAMYGYLQENGPFSIAANQHIQQLIAQLRQALAETFNVDPNTITITDNVTTGCDIVLWGLDWHQGDEILLTDCEHPGIIAIVQAIAARFGITYRFFPVAATLNQGDAAAVLANHLGPKTRLVILSHLLWNTGQVLPLAEIMAVCRRHQGNYPVRVLVDGAQSAGSLPLDFSRLEVDYYAFTGHAWFAGPAGVGGLYIHGDCLGEINPTYVGWRSITYGAKGEPTGWAEGGKRFEVATSAYPQYAGLLAALQLHQRQGTAEERYQAICQRSEFLWRGLNQLPHVHCLATSAPQAGLVSFTVDSPLGHRAIVQKLEEQRIYLRTIADPDCIRACCHYITDEEEINHLLARLADFGP”, the “soluble on expression in E. coli” value is listed as “soluble”. The value for “MTVTIKELTNHNYIDHELSATLDSTDAFEGPEKLLEIWFFPHKKSITTEKTLRNIGMDRWIEILKLVKCEVLSMKKTKELDAFLLSESSLFVFDHKLTMKTCGTTTTLFCLEKLFQIVEQELSWAFRTTQGGKYKPFKVFYSRRCFLFPCKQAAIHQNWADEVDYLNKFFDNGKSYSVGRNDKSNHWNLYVTETDRSTPKGKEYIEDDDETFEVLMTELDPECASKFVCGPEASTTALVEPNEDKGHNLGYQMTKNTRLDEIYVNSAQDSDLSFHHDAFAFTPCGYSSNMILAEKYYYTLHVTPEKGWSYASFESNIPVFDISQGKQDNLDVLLHILNVFQPREFSMTFFTKNYQNQSFQKLLSINESLPDYIKLDKIVYDLDDYHLFYMKLQKKI” was “soluble”; that for “LDFATLPPEINSARMYSGAGSAPMLAAASAWHGLSAELRASALSYSSVLSTLTGEEWHGPASASMTAAAAPYVAWMSVTAVRAEQAGAQAEAAAAAYEAAFAATVPPPVIEANRAQLMALIATNVLGQNAPAIAATEAQYAEMWSQDAMAMYGYAGASAAATQLTPFTEPVQTTNASGLAAQSAAIAHATGASAGAQQTTLSQLIAAIPSVLQGLSSSTAATFASGPSGLLGIVGSGSSWLDKLWALLDPNSNFWNTIASSGLFLPSNTIAPFLGLLGGVAAADAAGDVLGEATSGGLGGALVAPLGSAGGLGGTVAAGLGNAATVGTLSVPPSWTAAAPLASPLGSALGGTPMVAPPPAVAAGMPGMPFGTMGGQGFGRAVPQYGFRPNFVARPPAAG” was “not soluble”; that for “MNLKQISAIIIVKNAKQTLLECLNSLKDFDEIILLNNESSDNTLNIANEFKKDFANLHIYHSAFIGFGALKNLALSYAKNDWILSIDADEVLENECIKELKNLELQEDNIIALSRKNLYKGEWIKACGWWPDYVWRIFNKNFTRFNDNLVHESLVLPSNAKKIYLKNGLRHYAFRDISHLIDKMQYYSSLWAKQNIHKKSGVLKANLRAFWTFFRNYFLKNGFLYGYKGFIISVCNALGTFFKYMKLYELQKQKPKTCALIITTYNQKERLKLVLDSVKNLAFLPNEVLIADDGSKEDTARLIEEYQKDFPCPLKHIWQEDEGFRAAKSRNNAIKASKSEYIILIDGDMILEKDFVKNHLEFAKRKVILQGSRVILNKNESEEILKNNNYSLAFNKKGFKNQRSIFLAKCVYKFSKLTKKFFKKSQLVKGSKTCNMSFYKSDFEAIEGFNEKFIGWGREDSEFVARFLFNDGVFKRLKFNALAYHIYHEENSKNMLEINHQIYLETIKNEKTTWRLEHHHHHH” was “not soluble”. The value for “MSLGTDLLESGEGNKYLVVEKHLKQAINGGVYQADDRLPSIRSLSQELNVSKNTVIRAYQELEAQNLVYSVPKSGYRVKVALPTSRSIPDPTRVDLLSICKEILTYPEYQERLPAGSAHPNIDSPAIKSLYAEIGRHSRQQTHVPSHYQLPPGDHLLIKQLAKITQDLGTPAKLDEIMVTHGAQQAISLALRATTQKGDIVAVESPCYFGNLLMLESLGLKVVEIPSCPRDGMCPEALAKTMATWDIKALIVTPNFTNPTGAMMPLEKRQQLLLASGNIPIIEDDVFGGLSYDKPLPSLSLLDDKQRVIYVNSLSKTLDSRLRIGWMLAGRYRDQIEQYLLCENMGSLNLMQSAVATFLTSGKYRTHTARMGRVYQNNMRRFIQMLHQYLDEYESLKNRYQINAVQGSFLLWLRLPEDTDSYALYQACNKHRISLLPGTVFGTQEQYRHCVRLSVANFGHETDWSHAMQTLAKLIAKRVCEGHHHHHH” was “not soluble”.

In the case of “GQLVESGGGSVQAGGSLRLSCAASGIDSSSYCMGWFRQRPGKEREGVARINGLGGVKTAYADSVKDRFTISRDNAENTVYLQMNSLKPEDTAIYYCAAKFSPGYCGGSWSNFGYWGQGTQVTVSSH”, the “soluble on expression in E. coli” value is “soluble”. Turning to “AMNTDLKLPAGKTMTIEDVKQLLERYQMALKKTGEQLGWAYEQAAFPYTVRIHESVLYLQGDGRLYKGMAISVRTAGEETFIDIALPPGATHGDKGKANEFSKWLAKTLGGELHLFSGRTMVFGSA”, the “soluble on expression in E. coli” value is reported as “soluble”.

As to “MGSDKIHHHHHHMDLENKFSYHFLEGLTLTEDGILTQGNEQVYIPQKELGVLIVLLESAGHVVLKDMIIESVWKNIIVSDESLTRCIYSLRCIFEKIGYDRCIETIYRKGYRFSGQVFKTKINEDNTSDYSIAIFPFTTSLNTLDPLILNQELVQIISNKKIDGLYTYPMAATNFCNDHISQNSFLSRFKPDYFVTGRINQNNAVNTLYIELIDAKNLFLIASNHLPVDELHNTSQFIIDNILQTVHKPERSVRLAKQDQGYKNHYLSDEMLAGKKELYDFTPESIYRAMTIFDRLQNKSDIQTLKTECYCLLAECHMSLALHGKSELELAAQKALELLDYVSDITTVDGKILAIMGLITGLSGQAKVSHILFEQAKIHSTDIASLYYYRALVHFHNEKIEEARICIDKSLQLEPRRRKAVVIKECVDMYVPNPLKNNIKLYYKETESESHRVIIDNILKLKQLTRICMR”, the “soluble on expression in E. coli” value is on record as “not soluble”. On to “SNSANAADSGTLNYEVYKYNTNDTSIANDYFNKPAKYIKKNGKLYVQITVNHSHWITGMSIEGHKENIISKNTAKDERTSEFEVSKLNGKIDGKIDVYIDEKVNGKPFKYDHHYNITYKFNGPTDVAGANAP”, for which the “soluble on expression in E. coli” value was “not soluble”.

As for “MTFTASSSSCAITESPVVVALDYHERDKALAFVDKIDPRDCRLKVGKEMFTLFGPQLVRDLQQRGFDVFLDLKFHDIPNTTARAVAAAADLGVWMVNVHASGGARMMAAARDALAPFSKDAPLLIAVTVLTSMETSDLHDLGVTLSPAEHAERLARLTQQCGLDGVVCSAQEAVRFKQAFGAAFKLVTPGIRPAGSEAGDQRRIMTPEQALSAGVDYMVIGRPVTQSVDPAQTLKDINASLKREA”, the “soluble on expression in E. coli” value is on record as “not soluble”. The value for “MGPNHPCGYLPGRDARFTYVSPAYPLSPQSYRGLLEEGFRRSGNWVYRPCCIGCSACLPVRLPVHDFRLTRSHRRVIKRNADIDIRVSVARFDERQFQLYVRYLAARHPTDTPVSRDDYWSFVSSSWAQTRFVEFRSYSELIGVAVVDHVPGALSAVYTFFDPDAAERSPGSLAILWQILEARRLGREWLYLGYWIGGCRKMEYKARYRPLEALIANRWRRFQVDEPLTSSVLLEHHHHHH” was “soluble”; that for “MGSDKIHHHHHHMKTKPIDLYILSGFLGSGKSTLLKRLIEQEQARGNKIGVLMNELGEVSVDSSIVPKDTPLKEMLNGCICCTIQGELSAQLQSFIEEYELDVIFIEATGAAHPLEVVEACTHPVFAGQVRVRGVLTVVNARQWIEGKMSIKIKKLMEAQVTFADLIVVNKVDQVTDAQVEQLTTSIKDLNPKAINIPTTFSNLEPVHSERLHHAAAPSSRGSESKAHVHEHLHLRTMAVPIQHPVDRMELLSFLKGIQGQIYRVKGFIHLKESPGLFLFNYAYGDPMFERHRTDQAYAPVLVFIGDDLDHQAIEEGLQQLQQ” was “not soluble”; that for “PMSEKQLAEVVERTVTPLMKAQAIPGMAVAVIYEGQPHYFTFGKADVAANKPVTPQTLFELGSISKTFTGVLGGDAIARGEISLGDPVTKYWPELTGKQWQGIRMLDLATYTAGGLPLQVPDEVKDNASLLRFYQNWQPQWKPGTTRLYANASIGLFGALAVKPSGMSYEQAITTRVFKPLKLDHTWINVPKAEEAHYAWGYRDGKAVHVSPGMLDAEAYGVKTNVQDMASWVMVNMKPDSLQDNSLRKGLTLAQSRYWRVGAMYQGLGWEMLNWPVDAKTVVEGSDNKVALAPLPAREVNPPAPPVNASWVHKTGSTGGFGSYVAFIPEKQLGIVMLANKSYPNPARVEAAYRILSAL” was “soluble”. The value for “MSLRSHFATQKDQWQTYTKEKKIKIGFDATFVPMGYEEKDGSYIGFDIDLANAVFKLYGIDVEWQAIDWDMKETELKNGTIDLIWNGYSVTDERKQSADFTEPYMVNEQVLVTKKSSGIDSVAGMAGKTLGAQAGSSGYDAFNASPKILKDVVANQKVVQYSTFTQALIDLNSGRIDGLLIDRVYANYYLEKSGVLDQYNVMPAGYEGESFAVGARKVDKTLIKKINQGFETLYKNGEFQKISNKWFGEDVATDQVKGKREGHHHHHH” was “soluble”; that for “SLQPEAPKPPQIGMANPASVYCQQKGGTLIPVQTAQGVSNNCKLPGGETIDEWALWRLDHPAGEK” was “soluble”.

“DDDLEVKEENGVWVLNDGNFDNFVADKDTVLLEFYAPWCGHCKQFAPEYEKIASTLKDNDPPIAVAKIDATSASMLASKFDVSGYPTIKILKKGQAVDYDGSRTQEEIVAKVREVSQPDWTPPPEVT”: the “soluble on expression in E. coli” value is given as “soluble”. The value for “MSLMKNMARKNQKAPWEEEEEIIWVSRTELKNDMLALQKLGEELVELKPSALAKFPLPEDLAEAIKDAQRFKNEARRRQLQYIGKLMRHIDPEPLQAALDKLRNKHSQTTALLHKLEQLRDRIVAEGDSAIEVAMEQYPEADRQRLRLLARQASKEKAGNKPPKSSREIFQLLKEAMLAKQEIEEESEDDLDSAEEGHHHHHH” was “soluble”; that for “MKKVGILNSEISKIVADMGHMDTLAVVDLGFPIPQGVKKVDLVVDRGKPGLMEVIEILLRELKVERIILAKEMDEKSIQTKQELLKLIEKMNGPVEVVTVPHKEFKEMSKNVKGIIRTGADIPYSNVILVGGVIF” was “soluble”; that for “MSSDDEIYNENNDLDEEFSDDMDQQSGSSGESQGKANYEILDPTALESDMSKTISEVQAILQVEPGICRILLHKFKWNKDRLLDKFYEHSDTTEFLAEAQVIPKTSSSEEAAGSSAPPPGGDAECDVCCSMTRLSGLACAHRACDECWKAYLTEKIVDVGQSEIECMMMDCKLLIEDEKVMSYITDPFVIAAYRKLIISSYVETNSQLKWCPGAGCGKAVKGEPSDREPAVCTCGERFCFACAQDWHDPLSCRHMKMWRKKCSDDSETLNWINANTKPCPKCSVTIEKNGGCNHMSCKSSSCRYEFCWLCLGDWKNHAQCNRYVEDDNKTDSRSLSRKNLQRYLFYYNRFMAHQNSMKLEGKLYAKVEVKMDLMQALSMSWIEVQFLRRAVDALCECRRTLKYAYAFAYYLEANNMTTLFETNQSDLELATEQLSGMLEGDLEDNDLAELKRKVQDKYRYVELRRKKMLDHCAEGVELDSWVFCE” was “not soluble”.

On to “MGLYLKGPSYKQVARILGMSHYRMKMLAMKKREVDDTVTKINGERRYLWAAIDVESREILAILEHHHHHH”, for which the “soluble on expression in E. coli” value was “not soluble”.
